For data set [1], the target named is T1, Ty1 reverse transcriptase (wild-type) (Saccharomyces cerevisiae Ty1 retrotransposon) (UniProt Q07163).
T1 sequence: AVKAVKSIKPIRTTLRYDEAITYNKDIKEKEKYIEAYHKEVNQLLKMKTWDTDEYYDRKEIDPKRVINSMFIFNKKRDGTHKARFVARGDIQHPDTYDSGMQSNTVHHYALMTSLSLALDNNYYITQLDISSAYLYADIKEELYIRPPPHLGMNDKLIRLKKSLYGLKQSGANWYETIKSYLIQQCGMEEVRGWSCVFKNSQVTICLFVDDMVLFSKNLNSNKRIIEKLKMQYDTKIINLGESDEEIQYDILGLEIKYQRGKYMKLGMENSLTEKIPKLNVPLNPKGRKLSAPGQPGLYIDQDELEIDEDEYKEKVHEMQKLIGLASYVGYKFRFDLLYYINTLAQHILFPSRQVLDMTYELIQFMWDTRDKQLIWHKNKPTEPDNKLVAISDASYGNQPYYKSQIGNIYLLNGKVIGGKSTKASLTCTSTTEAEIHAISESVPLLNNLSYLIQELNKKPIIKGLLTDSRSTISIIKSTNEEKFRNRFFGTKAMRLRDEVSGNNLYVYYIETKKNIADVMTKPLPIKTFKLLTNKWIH
The following applies: 22 C, 20 mM KCl, pH 7.8.

In data set [2] the target is T2, Ty1 reverse transcriptase D211N D211N (Saccharomyces cerevisiae Ty1 retrotransposon) (UniProt Q07163).
T2 sequence: T1 sequence
The following applies: 22 C, 20 mM KCl, pH 7.8.

The target of data set [3] is T3, Ty1 VLP-associated reverse transcriptase (Saccharomyces cerevisiae Ty1 retrotransposon) (UniProt Q07163).
T3 sequence: T1 sequence
The following applies: 100% incorporation with Mg2+; 22 C; 50% inhibition at Mn2+:Mg2+ ratio 8e-3.

Data set [4] concerns the target HIV-1 reverse transcriptase (heterodimer) (HIV-1) (UniProt P04585+P04585). The following applies: 100% incorporation with Mg2+; 37 C; 50% inhibition at Mn2+:Mg2+ ratio 7e-4.

Like-named read-outs stand apart in the source and are kept apart here.

In the case of oligo(dG)12-18/poly(rC) primer-template, the activity in data set [1] (kcat with Mg2+, K0.5 Mg2+ 0.13 mM) came to 1.61 h⁻¹; in data set [1] (kcat with Mn2+, K0.5 Mn2+ 19.9 mM), 0.56 h⁻¹; in data set [2] (kcat with Mg2+, K0.5 Mg2+ 6.3 mM), 1.6 h⁻¹; in data set [2] (kcat with Mn2+, K0.5 Mn2+ 0.02 mM), 0.57 h⁻¹. In data set [3], the activity (pmol dGTP/ul VLP per 60 min) is 5. Besides, the activity (pmol dGTP/ug RT per 60 min) in data set [4] was 205.

The record behind these values is patent US7601489.
